According to PMC12548092, “Exploring Helical Fraying Linked to Dynamics and Catalysis in Adenylate Kinase” (Biochemistry, 2025):

Substrate: Nc1ncnc2c1ncn2[C@@H]1O[C@H](COP(=O)(O)OP(=O)(O)OP(=O)(O)O)[C@@H](O)[C@H]1O
Assay: purified protein
Details: varied substrate not named in table (text: substrates ATP and AMP)

B1: AKeco (Escherichia coli K-12; K47A) (protein)
chain: MRIILLGAPGAGKGTQAQFIMEKYGIPQISTGDMLRAAVKSGSELGAQAKDIMDAGKLVTDELVIALVKERIAQEDCRNGFLLDGFPRTIPQADAMKEAGINVDYVLEFDVPDELIVDRIVGRRVHAPSGRVYHVKFNPPKVEGKDDVTGEELTTRKDDQEETVRKRLVEYHQMTAPLIGYYSKEAEAGNTKYAKVDGTKPVAEVRADLEKILG
Question: Which Km does the source give for B1 here?
Answer: The Km was 116 ± 8 µM.

Question: What about the kcat of the same protein?
Answer: The kcat was 464 s⁻¹.

Question: What about the kcat/Km of the same protein?
Answer: Its kcat/Km is 4e+06 M⁻¹ s⁻¹.
